Results on 2 molecules are retold here after US20190314479A1.

This experiment deals with HLA-A2 molecules. As to the kind of experiment: T2A2 peptide binding assay to HLA-A2.

Turning to QQYNKPLCDL (modifications not checked) [HPV-16 E6 native peptide E6-3 (E6 90-99)], the T2A2 Binding came to 1020.
Regarding YMLDLQPET (modifications not checked) [HPV-16 E7 native peptide E7-1 (E7 11-19)], the T2A2 Binding came to 1100.
